Where two headings read alike, the source gives them in different places.

Test [1] deals with T1, MBP-FLAG-PPP1CC-His (human, UniProt P36873 1-323). Put plainly: ITC.
Test [2] deals with T1, MBP-FLAG-PPP1CC-His. Put plainly: ITC. This is another data set of the same source.

T1 sequence (P36873 whole entry): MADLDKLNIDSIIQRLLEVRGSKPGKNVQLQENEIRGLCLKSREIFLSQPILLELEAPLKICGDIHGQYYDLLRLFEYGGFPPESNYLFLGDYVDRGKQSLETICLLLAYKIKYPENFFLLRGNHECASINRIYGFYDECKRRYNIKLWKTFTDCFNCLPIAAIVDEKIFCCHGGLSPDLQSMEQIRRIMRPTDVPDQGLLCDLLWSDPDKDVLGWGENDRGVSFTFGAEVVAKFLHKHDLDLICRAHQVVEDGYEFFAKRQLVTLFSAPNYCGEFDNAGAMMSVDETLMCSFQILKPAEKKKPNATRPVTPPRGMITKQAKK

B1: recombinant PPP1R2 (natural protein)
chain: MAASTASHRPIKGILKNKTSTTSSMVASAEQPRGNVDEELSKKSQKWDEMNILATYHPADKDYGLMKIDEPSTPYHSMMGDDEDACSDTEATEAMAPDILARKLAAAEGLEPKYRIQEQESSGEEDSDLSPEEREKKRQFEMKRKLHYNEGLNIKLARQLISKDLHDDDEDEEMLETADGESMNTEESNQGSTPSDQQQNKLRSS
Regarding B1, the values for the Kd in test [1] and in test [2] were 1130 nM and 3590 nM, respectively.

Values taken from doi:10.1101/2025.10.21.683800 (bioRxiv, 2025).
